We go through three substances from patent publication EP2289541A1.

The target in this test is low density lipoprotein receptor-related protein (LRP). Description: cell-based or functional assay.
Where [1] appears, read: scale: % of passage versus filter for alteplase alone.

Take “Reteplase (from UniProt P00750 36-562) (enzyme)”: the % of abluminal alteplase (alteplase transport across in vitro BBB, zymography assay; alteplase 0.3 µM and Reteplase 0.3 µM) (% of abluminal alteplase alone) came out at 51.6. “DSPAα1 (Desmoteplase) (from UniProt P98119 37-477) (enzyme)” registered a % of abluminal alteplase (alteplase transport across in vitro BBB, zymography assay; alteplase 0.3 µM and DSPAalpha1 0.3 µM) (% of abluminal alteplase alone) of 46.6. Under setting [1], this substance displayed an alteplase (% of passage versus filter) (alteplase translocation across in vitro BBB, spectrozyme assay; alteplase 0.3 µM and DSPAalpha1 0.3 µM) of 67. The substance “DSPAα2 (from UniProt P15638 37-477) (enzyme)” displayed a % of abluminal alteplase (alteplase transport across in vitro BBB, zymography assay; alteplase 0.3 µM and DSPAalpha 2 0.3 µM) (% of abluminal alteplase alone) of 25.1. Also, the alteplase (% of passage versus filter) (alteplase translocation across in vitro BBB, spectrozyme assay; alteplase 0.3 µM and DSPAalpha2 0.3 µM) under setting [1] stood at 61.9.
